The supplement of paper PMC12764529
± gives the half width of the 95% confidence interval.

Legend:
[1] = folding stability dG unfold (combined trypsin and chymotrypsin); higher = more stable
Summary of the method: (§1)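 Digests were run with trypsin and chymotrypsin at 11 concentrations in threefold dilutions, plus a no-protease condition, on designed mini-proteins in a PA-tagged cDNA display construct. The mini-proteins were under 80 residues, had no cysteine, and were kept only when AlphaFold2 dimer inter-PAE was above 15. After sequencing, Bayesian fitting of the counts gave K50, from which unfolding free energy was derived against a sequence-predicted unfolded-state K50 and a shared folded-state K50, per protease or combined.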

[2] = folding stability dG unfold from trypsin proteolysis; higher = more stable
Summary of the method: as §1

[3] = folding stability dG unfold from chymotrypsin proteolysis; higher = more stable
Summary of the method: as §1

Row | Sequence | folding stability dG unfold [1] [kcal/mol] | folding stability dG unfold [2] [kcal/mol] | folding stability dG unfold [3] [kcal/mol]
1 | SAGGSAGGMVKLKVYKIPESVPPELRALLEALVEGEGEVEVEPEEAEALLKLPGIEELEVEELESAGGSAGG [r6_381_TrMRF] | 1.59 ± 0.077 | 0.912 ± 0.021 | 1.84 ± 0.059
2 | SAGGSAGGSAGGAVTPETIELPDATITVYTYPEGVVVEVTDPETGQATVISPEEFERLLASAGGSAGGSAGG [r7_372_JUSTAS] | 1.5 ± 0.057 | 1.78 ± 0.044 | 1.21 ± 0.034
3 | SAGGSAGGSAGGSSVKLTLPDGSQVTVDIHPDGTATVTTFPGDTPSVTNMPVSAFQAALPSAGGSAGGSAGG [r7_178_JUSTAS] | 2.08 ± 0.53 | 1.72 ± 0.44 | 1.79 ± 0.21
4 | SAMKIKIKVIGVLKPENHALIFLELDDSIPPEIPVVIRIKNENGEILEIPIEGNRALLVVDDRKIEILTSAG [r14_350_TrMRF] | 1.73 ± 0.12 | 1.82 ± 0.08 | 1.67 ± 0.072
5 | SKTVVIKIDNRVPVPKSDKYVPIKEEFFLKVINEIKKKGYKVIITGANPDNPLAKEVAKKAKELGFEVVGSA [r9_468_TrMRF] | 0.922 ± 0.065 | 0.992 ± 0.014 | 0.805 ± 0.082
6 | SAGGEEVILTLPDGSPVRVIPDEGTASFELPGYRVETEVLPDGRIRLTVRDPAAGALVRELDLGLLRSAGGS [r16_760_JUSTAS] | 0.623 ± 0.039 | 0.158 ± 0.039 | 0.789 ± 0.068
7 | SAGLKFSITKAEWENGYLTVKVMVTGPDGQSQPFTITIRIKPVPKPPPKMTEEKDPNGKKKWEYKDPDSAGG [r19_172_TrROS] | 2.47 ± 0.24 | 2.26 ± 0.11 | 2.6 ± 0.072
8 | GMTVTHTAEAGGRPLTITVTRSPDGWEVTVTDPDGTPIFSKTIPSDKNATLTLTDSAGNPLVTVNITLPPES [r1_34_JUSTAS] | 3.91 ± 0.051 | 4.15 ± 0.11 | 3.8 ± 0.046
9 | SAGGSAGGSAGGLLEIELPSRRILVELKLELKDGKLVKLEIKVKYEGREPEPLTSPEYKSAGGSAGGSAGGS [r10_1043_TrMRF] | 1.76 ± 0.44 | 1.71 ± 0.14 | 1.94 ± 0.17
10 | SAGGSAGVPPGGRVRVLVYNPLTGEVREVELPVGSLEEFLRGANLPAPLPDGRPAPVVVEILEVEPSAGGSA [r15_797_TrMRF] | 2.64 ± 0.36 | 1.77 ± 0.14 | 3.11 ± 0.081
11 | SMDLRLEVVSVEIEPEGRTLRIRVRVRLTALDPDDPDLPVPVLEVEVEIPIPLPEPLPLPVPNDPRALAASA [r9_357_TrMRF] | 2.25 ± 0.21 | 1.63 ± 0.11 | 2.75 ± 0.037
12 | SAGGSAEPRPVVVVFEGTEEEVEELVQKVRDEGFAIDFKVEPLPDPRYYRATVIVRDPDGSWTAKLSAGGSA [r15_177_TrMRF] | 2.12 ± 0.04 | 2.07 ± 0.046 | 2.11 ± 0.041
13 | SAGGSAGGSAGGKWRPITFPFPDGWYLQIYMNPDGDVKAEIYNPDGKPVEKTFPPGEPIFSAGGSAGGSAGG [r7_215_TrROS] | 1.55 ± 0.054 | 1.25 ± 0.027 | 1.67 ± 0.02
14 | SAGGSAGGSAMLTIPVTTPEEARELAEELLRRGYLRVEPTEDGDVTVIHPDGVPTRILVPTESAGGSAGGSA [r18_126_TrMRF] | 0.558 ± 0.059 | 0.471 ± 0.043 | 0.551 ± 0.11
15 | SPKELEFKHPDNGMEVKIRLDPNQGRIEIEVRPPNGPPVKMDMEVTDDRIKIDIYYPGGRPMMQLEFPLPSA [r9_665_TrROS] | 2.88 ± 0.085 | 2.92 ± 0.15 | 2.79 ± 0.074
16 | SAGGSAGGSAGGSGPVPVTIKSVTTYPEKDVYKVETVPATPEPITITLSPEELSDVVILSAGGSAGGSAGGS [r4_51_JUSTAS] | -0.561 ± 0.19 | -1.69 ± 0.57 | -0.437 ± 0.2
17 | SAGSSPEEIAERLREEAERTEKLPDGSEVRVSVSVDVEVLPNGTVRLTIPRSYPETGVVTTETVTIPVASAG [r5_397_JUSTAS] | -0.194 ± 0.16 | 0.0542 ± 0.11 | -0.579 ± 0.33
18 | SAGGSAGGSAGGSEVEVLDSRPLPDGHHLVLVRFPDGSYALYRIYPDGSVEVEVFSDDGSAGGSAGGSAGGS [r4_483_TrMRF] | 3.81 ± 0.084 | 2.47 ± 0.066 | 4.205 ± 0.029
19 | SVEKAREALEEAGFEVTRIEVREDGTVRVTVRRDGKLVEIELTVEPPPPVEVVEEEPEVRVERRYSAEDLSA [r9_2_TrROS_Hall] | 0.212 ± 0.35 | 0.499 ± 0.15 | -0.34 ± 0.42
20 | SAGGSAGGSMSKPVKITTTRDPNSNVITIQVESEEDVIEFAKKKGINIKIEPTSENTYKLTLESAGGSAGGS [r12_810_JUSTAS] | 0.113 ± 0.21 | 0.0305 ± 0.079 | -0.0494 ± 0.36
21 | SAGGSAGGSAEELAKKLAEELRKEHNLEVTVEEVELKEEEIPGLKFKPGQKLLVITVKKKDSAGGSAGGSAG [r3_229_TrROS_Hall] | 0.604 ± 0.13 | 0.901 ± 0.033 | 0.227 ± 0.069

Row | Sequence | folding stability dG unfold [1] [kcal/mol] | folding stability dG unfold [2] [kcal/mol] | folding stability dG unfold [3] [kcal/mol]
22 | SAGGSAGGSAGTLEALKNLKPGETVTLRVELRVERRYLDPNGKEHTEEVSTVTLELTLKPSAGGSAGGSAGG [r11_36_TrROS_Hall] | 3.49 ± 0.11 | 3.22 ± 0.11 | 3.62 ± 0.054
23 | SAGITITVPPGKPYYVHITMYMFDPNGKLMGPQTIMFPIRVPPDDTIEIPIPFDSPNIRITDISIMPKSAGG [r19_295_TrROS] | 2.4 ± 0.16 | 1.98 ± 0.058 | 2.54 ± 0.094
24 | SAGMIDVVVRVRLDVRPETVAEELRRRFPAIRRIEPVRVERRVEREPGRRYLLVHLRIELGDVPPELLRSAG [r5_326_TrMRF] | 3.33 ± 0.063 | 1.78 ± 0.032 | 3.714 ± 0.021
25 | SAGGSAGGGITAKEAAELLEKYLKEKGYDYEVKIEEVDPVNPTVKITVTFPDGSKLEITLPIVDSAGGSAGG [r6_617_TrMRF] | 3.09 ± 0.2 | 3.02 ± 0.16 | 3.21 ± 0.34
26 | KVEIKVEIEVKYNKETGKKVVKIRITVKEGSKEEAEKLAAELAKELFGPNVKVTVEYDKETDEITVTLVFPS [r1_273_TrROS_Hall] | 3.96 ± 0.2 | 3.57 ± 0.15 | 4.06 ± 0.18
27 | SAGGSAGGSWGTISIRIEFNFMAFDPGLGQFSMFPMEVYISIPIEIPPPPPPPKPKYDNGKPKSAGGSAGGS [r12_140_TrROS] | 3.78 ± 0.29 | 2.6 ± 0.28 | 4.52 ± 0.21
28 | SAGGSAGGSAGGPEEPEKLTLRVTLTFYNPETQEPVEEVEVEITLTAEDLKEGKITITPSAGGSAGGSAGGS [r10_672_TrROS_Hall] | 2.32 ± 0.13 | 1.54 ± 0.043 | 2.85 ± 0.07
29 | SAGGSLPLPPGATVETTEVDPANPDRTYKTTTTFTPVPGNTLLATPVVTDPETGTTTTTTTTVPLALGSAGG [r13_268_JUSTAS] | 0.64 ± 0.13 | 0.321 ± 0.054 | 0.809 ± 0.15
30 | SAGGSAGGMKYTTTTETSVVEVRTDPKTGTTTRLERVTVTTVDSSGNVLSTTETLEERVDPVPASAGGSAGG [r6_181_JUSTAS] | 2.15 ± 0.039 | 2.1 ± 0.059 | 2.163 ± 0.0081
31 | SAGGSAGGSAGGSSMSISVLEVRELPNGTLEITTVDYNPDNGYTTTTTYTLPPGQPLLISAGGSAGGSAGGS [r4_133_JUSTAS] | 1.74 ± 0.068 | 1.8 ± 0.053 | 1.62 ± 0.045
32 | SAGGSAGGMTPEELAEQKAEELREKLLAEGRPVSLKITKVTYEVDPKTGTVKVTSDIEIVYGPGSAGGSAGG [r6_454_JUSTAS] | 0.986 ± 0.24 | 1.04 ± 0.08 | 0.434 ± 0.29
33 | SAGGSSITVPYPEGYEITVEVFPNYATITTKTPSSTLTKTVSFSTPVTVKTPSDKPVTINVPSPEVSAGGSA [r2_57_JUSTAS] | 0.436 ± 0.18 | 0.303 ± 0.034 | 0.533 ± 0.12
34 | GPEVLVETFVDPETGRVVVRVYFPEPDRLVLAVGERGGDGVRVLVVEYEADPLEPRFAEFEFPALPEGFDES [r1_404_TrMRF] | 2.44 ± 0.092 | 2.52 ± 0.14 | 2.59 ± 0.054
35 | SMEEVKEALRKAGIDVPVTKIETEKLPDGSYKVTLTVGDKKVLTVYVPPEPPEPPVFYRTPPNGSREPVLSA [r9_442_JUSTAS] | 0.504 ± 0.18 | 0.291 ± 0.12 | 0.528 ± 0.27
36 | SAGEERTVRVEIEIVVKTEEELEALKALFPNAEATRNEDGLLTLRLTIEVRVAPPVVVRDPETNELLELSAG [r5_129_TrROS_Hall] | 2.46 ± 0.11 | 2.56 ± 0.088 | 2.42 ± 0.049
37 | SAGGSKKTIVIPVPPGMSVEQIAAELKAKLEELFPDLKVEVVEVKPDGYVKIKIDGKLILIKFPKPSAGGSA [r2_102_TrROS_Hall] | 2.77 ± 0.063 | 1.6 ± 0.049 | 3.18 ± 0.042
38 | SAGGSMVIPTKVSSLEEAKQVAEEILKKLGRPLTLDDVSFDPEKFKAELKPDTPVVVKVKDPSGVTLGASAG [r5_503_JUSTAS] | 0.409 ± 0.16 | 0.457 ± 0.032 | 0.458 ± 0.15
39 | SAGGMIVIEVETEEEALEAARELAKKLLEKLKEEGIEEVTLTVTVEVVDEKTKEVKTYTLTLTVKKPSAGGS [r8_163_TrROS_Hall] | 4.08 ± 0.21 | 3.94 ± 0.23 | 4.19 ± 0.051
40 | SAGGPKVVRIRYTMPPDQARDFIEELFGRPMSADDIADKLPPGFKVGIRAHPNPNGHVTFEIWIKLPDSAGG [r13_869_TrROS] | 2.93 ± 0.11 | 2.37 ± 0.062 | 3.068 ± 0.021
41 | SAIPINLPPGDKVKITFRNPDGSRMEIEFDPENGKWKVKMRPNDGKKQEQTIPAGNLDDLPPGVYSIEPVSA [r9_1110_TrROS] | 1.33 ± 0.26 | 1.08 ± 0.16 | 1.78 ± 0.27
42 | SAGGSAGGMTTVTYDPSTGVTTVLTPKTDPTSDETSVVTTTVTLPTSPSGGGGTATTTTTTTASSAGGSAGG [r6_952_JUSTAS] | 1.18 ± 0.045 | 0.74 ± 0.051 | 1.39 ± 0.024
